Data reported in patent publication US20200325220A1 (published 2020).

B1: C9 (antibody, V domains shown)
VH: DVQLVESGGGVVRPGVSLRLSCVASGFSFKNYDMAWVRQVPGKGLEWVCGINWNGSLRGYADSVKGRFLISRDHAKDSLYLQMSRLRAEDTALYYCARDPGYNTGRDHPYDLWGQGTMVTVSS
VL: DIQMTQSPSTLSASVGDRVTITCRASQSISSWLAWYQQKPGKAPKLLIYKASSLGSGVPSRFSGSGSGTQFTLTISSLQPDDFATYYCQQYNNYPYTFGQGTKLEIKR
B2: C6b (antibody)
heavy: not shown
light: EIVLTQSPGTLSLSPGETAILSCRASQSVSSSLLAWYQQKPGQAPRLLIYGASNRATGIRGRFSGSGSGTDFTLTISRLEPEDFVLYYCQHYGSRVTFGQGTKLEIKRTVAAPSVFIFPPSDEQLKSGTASVVCLLNNFYPREAKVQWKVDNALQSGNSQESVTEQDSKDSTYSLSSTLTLSKADYEKHKVYACEVTHQGLSSPVTKSFNRGEC
B3: C5b (antibody)
heavy: not shown
light: B2 light
B4: C5 (antibody)
heavy: not shown
light: B2 light
B5: GCE536 (antibody)
heavy: not shown
light: B2 light
B6: C6 (antibody)
heavy: not shown
light: B2 light

molecular target: Strep-tactin; test: ELISA

With B1 the EC50 was 0.187 µg/mL.

molecular target: recombinant human GM-CSF (human, UniProt P04141 18-144); test: ELISA
Sequence (P04141 18-144): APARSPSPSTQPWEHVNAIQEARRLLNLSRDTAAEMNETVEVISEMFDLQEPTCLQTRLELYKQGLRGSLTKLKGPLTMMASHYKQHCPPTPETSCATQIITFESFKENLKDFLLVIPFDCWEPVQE

B2 and B3 are within 1.5-fold of each other in EC50: 0.0324 µg/mL for the first, 0.0355 µg/mL for the second.

B4 and B5 are within 1.5-fold of each other in EC50: 0.0515 µg/mL for the first, 0.0492 µg/mL for the second.

molecular target: αPD-1; test: ELISA

Going from B2 to B3, the EC50 falls from about 1350 µg/mL to 0.0371 µg/mL (36000-fold).

Compared with B6, B4 is 13000-fold lower in EC50: about 743 µg/mL for the first, 0.0585 µg/mL for the second.

molecular target: αSLAM; test: ELISA

First: B2
Second: B3
The EC50 of the first is 4500-fold lower: 0.0885 µg/mL for the first, about 397 µg/mL for the second.

Going from B6 to B4, the EC50 rises from 0.0958 µg/mL to about 632 µg/mL (6600-fold).
